Measurements published in patent publication CN117736312A (SHANGHAI BOVAX BIOLOGICAL SCIENCE & TECH CO LTD, dated 2024).

Experiments:
Test in all cases: sandwich ELISA (rabbit anti-L1 capture)
HPV52L1 = molecular target: T1, HPV52L1 (human papillomavirus type 52, UniProt Q05138 27-529)
T1 sequence: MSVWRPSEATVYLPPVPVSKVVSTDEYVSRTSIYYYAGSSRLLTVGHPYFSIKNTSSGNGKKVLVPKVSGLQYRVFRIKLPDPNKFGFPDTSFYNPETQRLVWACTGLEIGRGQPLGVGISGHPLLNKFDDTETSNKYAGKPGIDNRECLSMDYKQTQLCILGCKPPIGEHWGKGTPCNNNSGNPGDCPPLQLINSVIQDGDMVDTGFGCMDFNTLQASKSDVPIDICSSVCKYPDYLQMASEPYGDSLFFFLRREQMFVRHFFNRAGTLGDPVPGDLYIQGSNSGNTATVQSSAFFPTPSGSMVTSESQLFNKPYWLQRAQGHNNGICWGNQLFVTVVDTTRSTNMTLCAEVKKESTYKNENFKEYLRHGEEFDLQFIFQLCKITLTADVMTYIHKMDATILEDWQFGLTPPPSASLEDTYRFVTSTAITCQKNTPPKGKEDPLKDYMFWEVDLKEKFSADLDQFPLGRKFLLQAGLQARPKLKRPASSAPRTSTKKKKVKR

HPV39L1 = molecular target: T2, HPV39L1 (human papillomavirus type 39, UniProt P24838 1-505)
T2 sequence: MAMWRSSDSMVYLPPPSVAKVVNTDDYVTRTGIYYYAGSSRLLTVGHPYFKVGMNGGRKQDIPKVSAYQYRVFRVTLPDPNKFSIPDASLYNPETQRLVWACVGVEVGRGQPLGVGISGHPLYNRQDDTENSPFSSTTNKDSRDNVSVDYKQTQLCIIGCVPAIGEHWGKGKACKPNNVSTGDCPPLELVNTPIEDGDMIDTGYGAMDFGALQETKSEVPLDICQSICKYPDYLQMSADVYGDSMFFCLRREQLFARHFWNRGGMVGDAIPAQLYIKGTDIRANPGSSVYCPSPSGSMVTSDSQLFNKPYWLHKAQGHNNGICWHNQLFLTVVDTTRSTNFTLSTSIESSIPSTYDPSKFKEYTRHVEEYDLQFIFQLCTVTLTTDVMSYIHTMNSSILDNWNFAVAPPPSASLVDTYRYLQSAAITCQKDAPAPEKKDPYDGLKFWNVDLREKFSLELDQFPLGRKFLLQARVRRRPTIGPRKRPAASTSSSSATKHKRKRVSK

HPV6L1 = molecular target: T3, HPV6L1 (human papillomavirus type 6, UniProt P69899 1-500)
T3 construct: also called HPV 6 L1原液
T3 sequence: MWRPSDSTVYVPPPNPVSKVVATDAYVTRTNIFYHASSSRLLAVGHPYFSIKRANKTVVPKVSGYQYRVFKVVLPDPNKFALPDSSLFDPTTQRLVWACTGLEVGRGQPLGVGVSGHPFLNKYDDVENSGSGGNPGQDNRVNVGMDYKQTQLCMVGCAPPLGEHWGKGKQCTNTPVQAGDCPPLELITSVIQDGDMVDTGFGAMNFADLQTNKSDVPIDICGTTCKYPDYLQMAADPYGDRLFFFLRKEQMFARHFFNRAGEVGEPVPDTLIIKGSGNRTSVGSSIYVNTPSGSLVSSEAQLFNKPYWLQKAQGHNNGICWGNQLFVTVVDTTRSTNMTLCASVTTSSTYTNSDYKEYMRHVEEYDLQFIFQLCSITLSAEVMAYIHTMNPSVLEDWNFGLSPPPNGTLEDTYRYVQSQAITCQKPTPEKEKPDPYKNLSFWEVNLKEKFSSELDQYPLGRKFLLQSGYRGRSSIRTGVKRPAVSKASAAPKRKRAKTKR

HPV11L1 = molecular target: T4, HPV11L1 (human papillomavirus type 11, UniProt P04012 1-501)
T4 sequence: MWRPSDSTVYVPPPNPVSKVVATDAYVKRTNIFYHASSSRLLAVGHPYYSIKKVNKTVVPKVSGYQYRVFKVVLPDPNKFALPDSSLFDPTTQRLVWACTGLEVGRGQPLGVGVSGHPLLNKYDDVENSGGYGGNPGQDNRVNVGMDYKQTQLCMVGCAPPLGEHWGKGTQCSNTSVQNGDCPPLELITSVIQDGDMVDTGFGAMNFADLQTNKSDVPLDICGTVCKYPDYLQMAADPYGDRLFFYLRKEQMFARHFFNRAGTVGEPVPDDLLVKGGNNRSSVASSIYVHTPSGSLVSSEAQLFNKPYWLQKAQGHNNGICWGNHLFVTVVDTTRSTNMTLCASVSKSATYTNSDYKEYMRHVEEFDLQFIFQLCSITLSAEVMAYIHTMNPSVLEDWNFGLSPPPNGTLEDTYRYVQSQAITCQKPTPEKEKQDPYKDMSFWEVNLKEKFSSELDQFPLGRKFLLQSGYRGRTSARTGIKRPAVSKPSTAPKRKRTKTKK

HPV58L1 = molecular target: T5, HPV58L1 (human papillomavirus type 58, UniProt P26535 27-524)
T5 sequence: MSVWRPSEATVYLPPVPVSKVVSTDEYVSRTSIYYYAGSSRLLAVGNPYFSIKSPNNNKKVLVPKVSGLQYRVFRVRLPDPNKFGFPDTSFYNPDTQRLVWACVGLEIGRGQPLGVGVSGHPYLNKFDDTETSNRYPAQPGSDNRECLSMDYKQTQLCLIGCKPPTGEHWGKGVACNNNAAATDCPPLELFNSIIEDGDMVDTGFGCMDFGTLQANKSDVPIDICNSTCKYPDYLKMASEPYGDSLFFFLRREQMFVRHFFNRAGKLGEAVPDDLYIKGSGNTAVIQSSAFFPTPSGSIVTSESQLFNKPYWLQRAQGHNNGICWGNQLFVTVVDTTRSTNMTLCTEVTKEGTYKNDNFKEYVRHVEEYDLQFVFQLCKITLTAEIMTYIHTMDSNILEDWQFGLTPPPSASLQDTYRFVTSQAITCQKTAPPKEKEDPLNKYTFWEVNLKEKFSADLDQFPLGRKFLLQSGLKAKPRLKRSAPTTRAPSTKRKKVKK

B1: HPV 59编号为30单克隆抗体 (antibody, V domains shown)
VH: QIQLVQSGPELKKPGETVKISCKASGYTFTDYSMHWVKQAPGKGLKWMGWINTETGEPTYADDFKGRFAFSLETSASTAYLQINNLKIEDTATYFCTRDGYVWYFDVWGAGTTVTVSS
VL: QIVLSQSPAILSASPGEKVTMTCRASSSVNYMHWYQQKPGSSPKPWIYATSNLASGVPARFSGSGSGTSYSLTISRVEAEDAATYYCQQWSSNPIFTFGSGTKLEIK
notes: Mouse hybridoma antibody tested as cell supernatant; also called 59H30
B1: no binding (tested: 原液40μg/ml; 细胞上清1:100) (HPV52L1); no binding (tested: 原液40μg/ml; 细胞上清1:100) (HPV39L1); no binding (tested: 原液40μg/ml; 细胞上清1:100) (HPV6L1). B1: no binding (tested: 原液40μg/ml; 细胞上清1:100) (HPV11L1); no binding (tested: 原液40μg/ml; 细胞上清1:100) (HPV58L1).
